For this assay, the target named is T1, full-length recombinant human CTGF/CCN2 (human, UniProt P29279 27-349).
T1 construct: connective tissue growth factor (CTGF/CCN2), human, full-length recombinant; also called connective tissue growth factor; recombinant CTGF; source: bought: R&D systems (cat#9190-CC)
T1 sequence (looked up): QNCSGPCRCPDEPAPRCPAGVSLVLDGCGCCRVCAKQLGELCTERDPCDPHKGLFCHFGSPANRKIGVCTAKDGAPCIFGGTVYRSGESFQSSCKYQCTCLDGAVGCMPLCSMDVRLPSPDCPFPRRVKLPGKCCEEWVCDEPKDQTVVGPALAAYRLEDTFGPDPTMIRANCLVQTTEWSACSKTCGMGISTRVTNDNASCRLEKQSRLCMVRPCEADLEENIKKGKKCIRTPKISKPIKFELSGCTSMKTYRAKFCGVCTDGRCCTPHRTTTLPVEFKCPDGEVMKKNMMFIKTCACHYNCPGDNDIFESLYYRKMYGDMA
In words: ELISA; plate wells coated with recombinant human CTGF; FAM-peptide in 0.05% Casein/PBST overnight at 4 °C, two peptide concentrations; alone or with excess unlabeled DAG (0.6 mM); detected with anti-FITC HRP antibody, absorbance at 450 nm. Particulars: both partners purified. (ELISA stands for enzyme-linked immunosorbent assay.)

Consider 2 molecules from paper PMC5680235, “Identification of a peptide recognizing cerebrovascular changes in mouse models of Alzheimer’s disease” (Nature Communications, 2017).

Where no end group is shown, it is not given here. FAM = 5(6)-carboxyfluorescein label

B1: unlabeled DAG peptide (cyclic CDAGRKQKC) (peptide)
peptide: CDAGRKQKC
modifications: also: cyclic peptide, ring type not given here
notes: cyclic 9-amino acid CX7C peptide found by in vivo T7 phage display, without label; Synthesised on rink amide resin, so the C-terminus is probably an amide; also called non-labeled DAG; free DAG; source: synthetic peptide
On to B1, for which the binding result is on record as “binds”.

B2: FAM-labeled DAG peptide (cyclic CDAGRKQKC) (peptide)
peptide: {FAM}-CDAGRKQKC
modifications: also: cyclic peptide, ring type not given here
notes: cyclic 9-amino acid CX7C peptide found by in vivo T7 phage display in hAPP-J20 mice; Synthesised on rink amide resin, so the C-terminus is probably an amide; the ring is probably a disulfide between the two cysteines (neither is stated for this peptide); also called FAM-DAG; source: synthetic peptide
For the molecule B2, the binding result is recorded as “binds”.
